The source of these data is US20050032064A1 (GENFIT, published 2005).

The series deals with the molecule itself. In words: electrophoretic mobility shift assay, in vitro translated protein on labeled Rev-DR2 oligonucleotide. As for the experimental part:
The electrophoretic gel shift studies were carried out by using the indicated end-labeled oligonucleotides, in the presence of the murine PPAR GAMMA receptor, murine RXR ALPHA receptor, human REV-ERB ALPHA receptor produced by reticulocyte lysate, or non-programmed lysates (lysate). Binding competition experiments were performed by adding a 0, 10 or 100-fold excess of unlabeled Rev-DR2 oligonucleotide.
The pSG5-mPPAR-gamma, pSG5-mRXR-alpha and pSG5-hRev-erb alpha plasmids were transcribed in vitro with T7 polymerase and translated with the rabbit reticulocyte lysate system (Promega, Madison, Wis., USA). Gel shift experiments with REV-ERB ALPHA, PPAR GAMMA and/or RXR ALPHA proteins were carried out as previously described (Gervois, P. et al., Molecular Endocrinology 1999, 13(3): 400-409; Vu-Dac, N. et al., J. Biol. Chem. 1994, 269(49): 31012-31018). For the competition experiments, increasing quantities of the indicated unlabeled probe were added immediately before adding the labeled oligonucleotide. The complexes were resolved in 5% polyacrylamide gels using […] buffer (90 mM borate, 2.5 mM EDTA, pH 8.3) at room temperature. Gels were dried and exposed overnight at −70° C. on Rayon-X film (XOMAT-AR, Eastman Kodak, Rochester, N.Y., USA).
Lastly, binding of the PPAR GAMMA receptor to the Rev-DR2 site was studied. […]

B1: human REV-ERB ALPHA receptor (receptor)
chain: MTTLDSNNNTGGVITYIGSSGSSPSRTSPESLYSDNSNGSFQSLTQGCPTYFPPSPTGSLTQDPARSFGSIPPSLSDDGSPSSSSSSSSSSSSFYNGSPPGSLQVAMEDSSRVSPSKSTSNITKLNGMVLLCKVCGDVASGFHYGVHACEGCKGFFRRSIQQNIQYKRCLKNENCSIVRINRNRCQQCRFKKCLSVGMSRDAVRFGRIPKREKQRMLAEMQSAMNLANNQLSSQCPLETSPTQHPTPGPMGPSPPPAPVPSPLVGFSQFPQQLTPPRSPSPEPTVEDVISQVARAHREIFTYAHDKLGSSPGNFNANHASGSPPATTPHRWENQGCPPAPNDNNTLAAQRHNEALNGLRQAPSSYPPTWPPGPAHHSCHQSNSNGHRLCPTHVYAAPEGKAPANSPRQGNSKNVLLACPMNMYPHGRSGRTVQEIWEDFSMSFTPAVREVVEFAKHIPGFRDLSQHDQVTLLKAGTFEVLMVRFASLFNVKDQTVMFLSRTTYSLQELGAMGMGDLLSAMFDFSEKLNSLALTEEELGLFTAVVLVSADRSGMENSASVEQLQETLLRALRALVLKNRPLETSRFTKLLLKLPDLRTLNNMHSEKLLSFRVDAQ
notes: also called hRev-erb alpha
Take B1: the binding result was “binds”.
